This is an account of results in article PMC3985513 (Biochemistry, 2014).

First the molecules themselves.
B1: SwH-NOX (heme-nitric oxide/oxygen binding protein from Shewanella woodyi), wild type (natural protein, UniProt B1KIH6 1-182, looked up)
chain: MMGMVFTGLMELIEDEFGYETLDTLLESCELQSEGIYTSVGSYDHQELLQLVVKLSEVSSVPVTELVRLFGKKLFVELIEGHPEIANEMKDSFDLLSKIDSFIHVEVYKLYPQAELPKFTCDRLGDNDIRLHYQSKRPFASFAEGLLDGCAEYFKEDFTISRTPETQDSETDVIFNITRAPR
B2: SwHaCE (H-NOX-associated cyclic-di-GMP processing enzyme from Shewanella woodyi, diguanylate cyclase/phosphodiesterase) (enzyme, UniProt B1KIH5 1-637, looked up)
chain: MSALEDREQVFLRRIDREKRARQQAEQILNEKSKELWNTNQKLQQINEQLDQMVKTRTSELEIAKTNAELESLAHKNAKERFQLAMRATSAGVWERNIDEDAWYFSDRLIALFGYSREELLFGFKNLSFIHNEDKKPLLHVLKNHFRNGKAFDFECRVLTSEGRYKWFWIVGQAVWNDKGEVVRIAGSFSDIDERVENSKLVEKMAHYDHLTMVPNRVLYNQKLDIALSLADKEQSHLAVILIDLNDFKQVNDTLGHSAGDHLLQHIANQFKLNISESDIVARLGGDEFSIVLTNIANRQAVVTKCEQVLEIISRPFYYQKNLIIPKISMGIALYPEYGMTRDELMVNADLAMYKAKGEKHMGSGFQFCEQEHINKNMERTELSSELCEAITENEFFMHFQPIIDLSNGEVTFAEALIRWKHTNKGVLLPEKFISIAEDSGLITRLGKLSIELVAKQIDRMMAAKRLQKLTINISPSHFLSQSFMEDLKEILSVYPKMSSFITIEITEVVFLLNMEVAKKTVIELHDMGITISLDDFGTGYSSFKYLQQLPIDVIKLDCSFIAELDIDPSHRNIASTIIELAHSLEIKVIAEGVETNSQLVFLQDHHCDFAQGSYFFKPLSVIDFLHMQRCISLPAK

Read-outs that look alike come from different tables or passages of the source.

The target of data set [1] is B2. Put plainly: AUC.
Data set [2] addresses B2. Put plainly: AUC. The source holds these as a separate data set.
Data set [3] addresses B2. Put plainly: other fluorescence titration.
Data set [4] deals with the molecule itself. Put plainly: AUC.

On to B1, for which the “stoichiometry N” value in data set [1] and in data set [2] was 1 H-NOX per HaCE (2+2) throughout. Moreover, the Kd in data set [3] was 2500 to 3000 nM.

On to B2, for which, in data set [4], the “stoichiometry N” value came out at 2.

For orientation: stoichiometry N means a count of units in the complex or per binding partner. As usually defined, the Kd is a measure of binding affinity in units of concentration. A lower Kd goes with higher affinity.
